Laboratory results published in patent US20130052132A1, “Method for Producing Radioactively Labeled Polypeptide” (priority 2011, published 2013).
* marks the point of attachment. Benzoyl(3-I) = O=C(c1cccc(I)c1)*

Tests used:
[1] = parameters: species or system ddY mice; settings: mouse
Method: After 5 minutes, 15 minutes, 30 minutes, 60 minutes, and 120 minutes from the administration, organs were dissected out of the mice (n=5). The weight and radioactivity of each organ were determined, and an accumulation amount (% dose/g) of the polypeptide of Example 1 was calculated from the radioactivity per unit weight. FIG. 1 is a graph showing, by way of example, how the accumulation of the polypeptide of Example 1 in each organ changed over time. Table 2 provides the ratio of pancreas/liver (accumulation amount in pancreas/accumulation amount in liver), the ratio of pancreas/kidney (accumulation amount in pancreas/accumulation amount in kidney), and the ratio of pancreas/blood (accumulation amount in pancreas/accumulation amount in blood) based on the accumulation amount of the polypeptide of Example 1 in each organ. The polypeptide of Example 2 (0.51 μCi) was administered to unanesthetized 6-week-old ddY mice (male, weight: 30 g) by intravenous injection (through the tail vein). After 5 minutes, 15 minutes, 30 minutes, 60 minutes, and 120 minutes from the administration, organs were dissected out of the mice (n=5). The weight and radioactivity of each organ were determined, and an accumulation amount (% dose/g) of the polypeptide of Example 2 was calculated from the radioactivity per unit weight. FIG. 3 is a graph showing, by way of example, how the accumulation of the polypeptide of Example 2 in each organ changed over time. Table 4 provides the ratio of pancreas/liver, the ratio of pancreas/kidney, and the ratio of pancreas/blood based on the accumulation amount of the polypeptide of Example 2 in each organ. A biodistribution experiment was performed by following the same procedure as in Example 1 except that the polypeptide of Example 4 (0.61 μCi) was used in place of the polypeptide of Example 1. FIG. 6 is a graph showing, by way of example, how the accumulation of the polypeptide of Example 4 in each organ changed over time. […]

[2] = biological target: T1, GLP-1R of the pancreatic β-cells (Mus musculus, UniProt O35659); assay: Two-dimensional imaging analysis of pancreas sections (fluorescence and autoradiography); type: in vivo, MIP-GFP mouse; settings: MIP-GFP mice
T1 construct: the pancreas was dissected out of the mouse; from tissue; host or cells: pancreas sections of MIP-GFP mice after intravenous dosing
T1 sequence (O35659 22-463): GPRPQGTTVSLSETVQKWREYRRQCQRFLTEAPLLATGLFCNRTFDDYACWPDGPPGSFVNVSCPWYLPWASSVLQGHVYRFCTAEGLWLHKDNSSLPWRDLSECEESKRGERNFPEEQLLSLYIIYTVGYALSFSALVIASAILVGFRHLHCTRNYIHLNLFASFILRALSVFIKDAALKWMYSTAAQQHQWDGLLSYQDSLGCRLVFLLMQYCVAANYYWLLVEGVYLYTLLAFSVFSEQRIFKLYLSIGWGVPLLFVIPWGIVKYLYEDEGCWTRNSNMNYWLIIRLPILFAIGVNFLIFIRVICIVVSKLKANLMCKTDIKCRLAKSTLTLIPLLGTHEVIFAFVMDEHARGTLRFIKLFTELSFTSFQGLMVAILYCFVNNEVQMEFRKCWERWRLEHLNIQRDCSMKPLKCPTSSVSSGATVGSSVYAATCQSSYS
Method: The polypeptide of Example 1 (5 μCi/100 μl) was administered to an unanesthetized MIP-GFP mouse (male, weight: 20 g) by intravenous injection, and after 30 minutes and 60 minutes from the administration, the pancreas was dissected out of the mouse (n=1). Sections were cut out of the dissected pancreas, and each section was placed on a slide glass, covered with a cover glass. The fluorescence and radioactivity (autoradiography) of each section were determined using an image analyzer (trade name: Typhoon 9410, manufactured by GE Health Care Inc.) (exposure time: 18 hours). The exemplary results are shown in lanes 1, 4 and 5 of FIG. 2. […] After 30 minutes from the preliminary administration, the polypeptide of Example 1 (5 μCi/100 μl) was administered to the mice by intravenous injection, and after 30 minutes and 60 minutes from the administration of the polypeptide, the pancreases were dissected out of the mice (n=2). Sections were cut out of the dissected pancreases, and the fluorescence and radioactivity of each section were determined in the same manner as above. […] FIG. 4 illustrates exemplary results of the imaging analysis of pancreas sections of MIP-GFP mice to which the polypeptide of Example 2 was administered. The images on the upper row show a fluorescence signal and those on the lower row show a radioactivity signal of the polypeptide represented by the formula (20). […]

[3] = biological target: T2, GLP-1R (glucagon-like peptide-1 receptor) of mouse pancreatic islet cells (mouse, UniProt O35659 22-463); assay: displacement of [125I]Bolton-Hunter labeled exendin(9-39) from mouse pancreatic islet cells, filter separation, gamma counter
T2 construct: whole, on cells; also called GLP-1R of pancreatic beta-cells
T2 sequence: T1 sequence (O35659 22-463)

Example 1 (DLSKQMEEEAVRLFIEWLRNGGPSSGAPPPS; A polypeptide produced in Production Example 1)
deiodization metabolism in vivo [1]: not subjected to deiodization metabolism in vivo
accumulation in the pancreas ([1]; in vivo): exceeding 15 % dose/g
ratio of pancreas/kidney in the accumulation amount ([1]; in vivo): ≥ 1
localization of the radioactivity signal in pancreas sections ([2]; 30 and 60 minutes after intravenous injection, compared with GFP signal): substantially consistent with that of the GFP signal
radioactivity signal in pancreas sections after blocking the receptors ([2]; preliminary administration of cold probe non-labeled exendin(9-39) 50 μg 30 minutes before): hardly detected

B1: polypeptide represented by the formula (11) (peptide)
peptide: Ac-DLSK(Benzoyl(3-I))QMEEEAVRLFIEWLRNGGPSSGAPPPS-NH2
SMILES: CC[C@H](C)[C@H](NC(=O)[C@H](Cc1ccccc1)NC(=O)[C@H](CC(C)C)NC(=O)[C@H](CCCNC(=N)N)NC(=O)[C@@H](NC(=O)[C@H](C)NC(=O)[C@H](CCC(=O)O)NC(=O)[C@H](CCC(=O)O)NC(=O)[C@H](CCC(=O)O)NC(=O)[C@H](CCSC)NC(=O)[C@H](CCC(N)=O)NC(=O)[C@H](CCCCNC(=O)c1cccc(I)c1)NC(=O)[C@H](CO)NC(=O)[C@H](CC(C)C)NC(=O)[C@H](CC(=O)O)NC(C)=O)C(C)C)C(=O)N[C@@H](CCC(=O)O)C(=O)N[C@@H](Cc1c[nH]c2ccccc12)C(=O)N[C@@H](CC(C)C)C(=O)N[C@@H](CCCNC(=N)N)C(=O)N[C@@H](CC(N)=O)C(=O)NCC(=O)NCC(=O)N1CCC[C@H]1C(=O)N[C@@H](CO)C(=O)N[C@@H](CO)C(=O)NCC(=O)N[C@@H](C)C(=O)N1CCC[C@H]1C(=O)N1CCC[C@H]1C(=O)N1CCC[C@H]1C(=O)N[C@@H](CO)C(N)=O
notes: Non-radioactive exendin(9-39) derivative with Arg in place of Lys at position 19; Formula (11) itself is a drawing; also called cold probe
IC50 [3]: 32.1 nM
